Test results: patent US20170224836A1 (Novartis, published 2017)
Like-named read-outs stand apart in the source and are kept apart here.

Experiments:
[1] = target: T1, hCDH6aa54-615 APPavi (human, UniProt P55285 54-615); assay: SPR binning
T1 sequence: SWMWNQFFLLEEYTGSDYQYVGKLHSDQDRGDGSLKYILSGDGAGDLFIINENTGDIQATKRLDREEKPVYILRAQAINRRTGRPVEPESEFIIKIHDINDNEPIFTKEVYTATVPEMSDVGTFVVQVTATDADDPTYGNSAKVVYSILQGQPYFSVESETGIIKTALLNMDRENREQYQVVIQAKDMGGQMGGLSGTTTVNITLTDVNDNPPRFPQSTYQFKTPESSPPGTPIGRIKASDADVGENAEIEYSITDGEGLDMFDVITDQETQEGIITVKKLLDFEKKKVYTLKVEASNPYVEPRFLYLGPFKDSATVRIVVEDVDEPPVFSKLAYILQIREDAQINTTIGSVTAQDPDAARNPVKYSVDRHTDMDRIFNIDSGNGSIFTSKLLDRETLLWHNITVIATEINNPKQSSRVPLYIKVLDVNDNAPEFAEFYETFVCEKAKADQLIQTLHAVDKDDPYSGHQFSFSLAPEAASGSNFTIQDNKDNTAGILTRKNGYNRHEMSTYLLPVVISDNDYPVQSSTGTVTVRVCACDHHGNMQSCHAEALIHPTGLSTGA

[2] = target: T1, hCDH6aa54-615 APPavi; assay: SPR binning; remark: listed apart in the source
[3] = target: T1, hCDH6aa54-615 APPavi; assay: SPR binning; remark: listed apart in the source
[4] = target: T1, hCDH6aa54-615 APPavi; assay: SPR binning; remark: listed apart in the source
[5] = target: T2, human CDH6 on cells (human, UniProt P55285 54-790); assay: FACS on OVCAR3 cells
T2 sequence: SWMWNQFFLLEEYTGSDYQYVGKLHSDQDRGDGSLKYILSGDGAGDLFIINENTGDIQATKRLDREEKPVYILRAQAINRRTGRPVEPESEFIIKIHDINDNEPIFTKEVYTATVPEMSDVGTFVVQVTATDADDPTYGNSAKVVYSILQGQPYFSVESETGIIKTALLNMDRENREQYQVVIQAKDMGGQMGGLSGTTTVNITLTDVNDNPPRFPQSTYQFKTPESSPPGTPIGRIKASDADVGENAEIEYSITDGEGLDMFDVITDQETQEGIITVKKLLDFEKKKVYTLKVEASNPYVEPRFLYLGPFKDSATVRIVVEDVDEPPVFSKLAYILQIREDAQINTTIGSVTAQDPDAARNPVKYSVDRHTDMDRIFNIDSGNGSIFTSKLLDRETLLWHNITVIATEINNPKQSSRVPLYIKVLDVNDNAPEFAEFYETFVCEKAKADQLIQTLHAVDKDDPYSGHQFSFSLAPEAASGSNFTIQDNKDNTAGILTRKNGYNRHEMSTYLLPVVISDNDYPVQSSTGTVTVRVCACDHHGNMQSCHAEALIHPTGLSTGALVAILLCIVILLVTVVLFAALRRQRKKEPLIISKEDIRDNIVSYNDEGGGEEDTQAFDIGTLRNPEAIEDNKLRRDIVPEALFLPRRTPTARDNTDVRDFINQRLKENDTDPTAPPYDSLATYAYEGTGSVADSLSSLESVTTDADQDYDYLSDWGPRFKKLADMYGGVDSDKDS

[6] = target: T2, human CDH6 on cells; assay: FACS on CHO-TO-humanCDH6 cells plus tetracycline
[7] = target: T1, hCDH6aa54-615 APPavi; assay: SPR binning; remark: listed apart in the source
[8] = target: T3, mouse CDH6 on cells (mouse, UniProt P97326 54-790); assay: FACS on CHO-mouseCDH6 cells
T3 sequence (looked up): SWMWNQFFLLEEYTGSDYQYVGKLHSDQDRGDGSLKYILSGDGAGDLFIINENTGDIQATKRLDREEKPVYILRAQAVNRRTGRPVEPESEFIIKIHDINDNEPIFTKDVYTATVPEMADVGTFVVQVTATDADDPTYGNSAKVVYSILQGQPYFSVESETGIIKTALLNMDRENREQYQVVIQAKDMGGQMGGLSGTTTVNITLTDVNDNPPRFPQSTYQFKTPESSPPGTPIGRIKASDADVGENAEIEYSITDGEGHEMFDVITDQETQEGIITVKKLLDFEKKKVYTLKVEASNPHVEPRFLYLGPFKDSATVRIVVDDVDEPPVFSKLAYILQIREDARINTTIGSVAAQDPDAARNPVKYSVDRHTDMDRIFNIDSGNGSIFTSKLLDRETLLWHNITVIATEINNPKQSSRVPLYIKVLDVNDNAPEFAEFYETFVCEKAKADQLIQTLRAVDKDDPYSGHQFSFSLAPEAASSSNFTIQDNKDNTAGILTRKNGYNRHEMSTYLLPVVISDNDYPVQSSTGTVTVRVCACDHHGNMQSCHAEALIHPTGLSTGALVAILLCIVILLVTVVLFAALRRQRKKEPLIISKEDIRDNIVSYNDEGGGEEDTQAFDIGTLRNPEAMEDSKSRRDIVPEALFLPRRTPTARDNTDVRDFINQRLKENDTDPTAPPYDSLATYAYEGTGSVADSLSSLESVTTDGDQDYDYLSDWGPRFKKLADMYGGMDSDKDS

[9] = target: T1, hCDH6aa54-615 APPavi; assay: SPR binning; remark: listed apart in the source

response of secondary antibody on primary antibody-CDH6 complex [1]: 6
response of secondary antibody on primary antibody-CDH6 complex [2]: -3.26
response of secondary antibody on primary antibody-CDH6 complex [3]: 16.5
response of secondary antibody on primary antibody-CDH6 complex [4]: 5.12
EC50 (read off the curve) [5]: ~0.4 nM
EC50 (read off the curve) [6]: ~0.9 nM
response of secondary antibody on primary antibody-CDH6 complex [7]: 9.51
EC50 (read off the curve) [8]: ~1 nM
response of secondary antibody on primary antibody-CDH6 complex [9]: 24.7
B1: NOV0712 (antibody, human IgG1, kappa, V domains shown)
VH: QVQLLESGGGLVQPGGSLRLSCAASGFTFSSHGMHWVRQAPGKGLEWVSVISGSGSNTGYADSVKGRFTISRDNSKNTLYLQMNSLRAEDTAVYYCARQWGSYAFDSWGQGTLVTVSS
VL: DIQMTQSPSSLSASVGDRVTITCRASQSISSYLNWYQQKPGKAPKLLIYAVSTLQSGVPSRFSGSGSGTDFTLTISSLQPEDFATYYCQQSGTFPPTTFGQGTKVEIKR
